In publication PMC4673700:
Read-outs that look alike come from different tables or passages of the source.

What was measured:
[1] = molecular target: GST-fused galectin-1 protein (human) (UniProt P09382)
[2] = molecular target: Aflibercept (human); experiment: BLI; BLItz; aflibercept, PNGase F-treated aflibercept, VEGFR1-Fc or VEGFR2-Fc immobilised on Protein A-coated biosensors; GST-galectin-1 as analyte at various concentrations; PBS; values of empty sensors subtracted
[3] = molecular target: PNGase F-treated aflibercept (human); experiment: as above
[4] = molecular target: PNGase F-treated aflibercept (human); experiment: as above; remark: listed apart in the source

GST-fused galectin-1 protein, sequence (P09382 whole entry, the tested form may be a part): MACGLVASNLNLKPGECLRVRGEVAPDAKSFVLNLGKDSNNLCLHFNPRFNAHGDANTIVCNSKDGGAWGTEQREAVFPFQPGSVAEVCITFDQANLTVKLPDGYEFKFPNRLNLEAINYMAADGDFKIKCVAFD
GST-fused galectin-1 protein (human), sequence (P09382 whole entry, the tested form may be a part): as above
Aflibercept (Fc fusion), sequence (chain): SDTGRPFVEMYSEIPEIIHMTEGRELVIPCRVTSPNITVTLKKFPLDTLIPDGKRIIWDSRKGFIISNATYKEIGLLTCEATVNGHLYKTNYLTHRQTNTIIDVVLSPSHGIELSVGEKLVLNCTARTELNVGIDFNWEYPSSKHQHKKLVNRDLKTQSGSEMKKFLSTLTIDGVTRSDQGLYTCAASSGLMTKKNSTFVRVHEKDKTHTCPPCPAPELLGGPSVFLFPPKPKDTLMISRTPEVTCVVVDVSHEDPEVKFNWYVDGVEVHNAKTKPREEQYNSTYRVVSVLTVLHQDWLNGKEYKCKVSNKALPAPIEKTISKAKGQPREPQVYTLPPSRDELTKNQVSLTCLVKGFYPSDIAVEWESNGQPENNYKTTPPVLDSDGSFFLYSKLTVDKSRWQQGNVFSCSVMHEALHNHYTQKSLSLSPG

Substance | HRMEC proliferation (RealTime-Glo, relative to PBS) with 10 μg/ml galectin-1 for 48 h with 7.5 μg/ml aflibercept (2.77 without aflibercept) [1] | Kd [2] | koff [2] | kon [2] | Kd [3] | koff [3] | kon [3] | Kd [4]
Aflibercept (Fc fusion) | 0.96 fold change |  |  |  |  |  |  | 
GST-fused galectin-1 protein (from UniProt P09382 1-135) (natural protein) |  | 23.7 nM | 0.000371 s⁻¹ | 15700 M⁻¹ s⁻¹ | 868 nM | 0.00531 s⁻¹ | 6120 M⁻¹ s⁻¹ | 869 nM
